From IntAct's records for PubMed 19937093

B1: TNF receptor-associated factor 4 (Homo sapiens), Q9BUZ4 (parent)
chain: MPGFDYKFLEKPKRRLLCPLCGKPMREPVQVSTCGHRFCDTCLQEFLSEGVFKCPEDQLPLDYAKIYPDPELEVQVLGLPIRCIHSEEGCRWSGPLRHLQGHLNTCSFNVIPCPNRCPMKLSRRDLPAHLQHDCPKRRLKCEFCGCDFSGEAYESHEGMCPQESVYCENKCGARMMRRLLAQHATSECPKRTQPCTYCTKEFVFDTIQSHQYQCPRLPVACPNQCGVGTVAREDLPGHLKDSCNTALVLCPFKDSGCKHRCPKLAMARHVEESVKPHLAMMCALVSRQRQELQELRRELEELSVGSDGVLIWKIGSYGRRLQEAKAKPNLECFSPAFYTHKYGYKLQVSAFLNGNGSGEGTHLSLYIRVLPGAFDNLLEWPFARRVTFSLLDQSDPGLAKPQHVTETFHPDPNWKNFQKPGTWRGSLDESSLGFGYPKFISHQDIRKRNYVRDDAVFIRAAVELPRKILS

Variants of: B1
Conditions: with SMURF1, Q9HCE7-2
SMURF1, Q9HCE7-2, sequence (Q9HCE7 other isoform, or with tags, fused parts or gaps): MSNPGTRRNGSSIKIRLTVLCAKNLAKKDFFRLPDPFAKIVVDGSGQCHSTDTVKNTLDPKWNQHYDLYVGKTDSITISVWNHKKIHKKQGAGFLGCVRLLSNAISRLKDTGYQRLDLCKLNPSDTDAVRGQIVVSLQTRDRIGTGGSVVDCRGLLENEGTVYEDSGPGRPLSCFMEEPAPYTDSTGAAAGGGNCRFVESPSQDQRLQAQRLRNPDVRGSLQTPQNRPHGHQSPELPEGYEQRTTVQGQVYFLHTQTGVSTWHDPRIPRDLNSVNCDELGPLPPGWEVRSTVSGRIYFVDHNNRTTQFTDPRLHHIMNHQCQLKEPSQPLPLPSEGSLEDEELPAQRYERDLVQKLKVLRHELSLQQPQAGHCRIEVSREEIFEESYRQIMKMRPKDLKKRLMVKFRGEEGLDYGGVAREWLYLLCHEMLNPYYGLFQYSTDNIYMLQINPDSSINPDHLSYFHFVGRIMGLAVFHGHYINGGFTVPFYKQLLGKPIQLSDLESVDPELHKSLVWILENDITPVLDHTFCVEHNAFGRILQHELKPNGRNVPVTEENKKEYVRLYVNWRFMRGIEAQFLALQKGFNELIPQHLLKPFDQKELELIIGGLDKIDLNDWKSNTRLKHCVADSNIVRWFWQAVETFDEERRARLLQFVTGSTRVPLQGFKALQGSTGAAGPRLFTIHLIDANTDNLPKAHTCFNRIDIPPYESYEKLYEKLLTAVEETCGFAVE

Variant | effect of a mutation on the interaction
MPGFDYKFLEKPKRRLLCPLCGKPMREPVQVSTCGHRFCDTCLQEFLSEGVFKCPEDQLAAAAAKIYPDPELEVQVLGLPIRCIHSEEGCRWSGPLRHLQGHLNTCSFNVIPCPNRCPMKLSRRDLPAHLQHDCPKRRLKCEFCGCDFSGEAYESHEGMCPQESVYCENKCGARMMRRLLAQHATSECPKRTQAAAACTKEFVFDTIQSHQYQCPRLPVACPNQCGVGTVAREDLPGHLKDSCNTALVLCPFKDSGCKHRCPKLAMARHVEESVKPHLAMMCALVSRQRQELQELRRELEELSVGSDGVLIWKIGSYGRRLQEAKAKPNLECFSAAAATHKYGYKLQVSAFLNGNGSGEGTHLSLYIRVLPGAFDNLLEWPFARRVTFSLLDQSDPGLAKPQHVTETFHPDPNWKNFQKPGTWRGSLDESSLGFGYPKFISHQDIRKRNYVRDDAVFIRAAVELPRKILS [P60A;L61A;D62A;Y63A;P194A;C195A;T196A;Y197A;P335A;F337A;Y338A] | disrupting interaction
